The results in this text go back to publication doi:10.1101/2020.05.22.111005 (bioRxiv, 2020).

In test [1] the target is SARS-CoV-2 S receptor-binding domain (SRBD), monomeric, wild type (SARS-CoV-2, Wuhan-Hu-1 reference spike, UniProt P0DTC2). The test can be described thus: BLI.
Test [2] addresses T1, prefusion-stabilized trimeric SARS-CoV-2 S protein ectodomain (S2Pecto) (SARS-CoV-2, Wuhan-Hu-1 reference spike, UniProt P0DTC2, stabilised). The test is described as follows: negative-stain electron microscopy.
For test [3], the target named is T1, prefusion-stabilized trimeric …. The test is described as follows: ELISA.

B1: COV2-2165 (human mAb) (antibody, V domains shown)
VH: EVQLVESGGGLVQPGGSLRLSCAASGLTVRSNYMTWVRQTPGKGLEWVSVIYSGGSTFYADSVKGRFTISRDNSKNTVYLQMNSLRAEDTAVYYCARDLVTYGLDVWGQGTTVTVSS
VL: DIQLTQSPSFLSASVGDRVTITCRASQGISNYLAWYQQKPGTAPNLLIYAASTLQSGVPSRFSGSGSGTEFTLTISSLQPEDFATYYCQLLNSHPLTFGQGTRLEIK
Consider B1, for which the binding result in test [1] is given as “binds”.

B2: Fab COV2-2165 (Fab, V domains shown)
VH: EVQLVESGGGLVQPGGSLRLSCAASGLTVRSNYMTWVRQTPGKGLEWVSVIYSGGSTFYADSVKGRFTISRDNSKNTVYLQMNSLRAEDTAVYYCARDLVTYGLDVWGQGTTVTVSS
VL: DIQLTQSPSFLSASVGDRVTITCRASQGISNYLAWYQQKPGTAPNLLIYAASTLQSGVPSRFSGSGSGTEFTLTISSLQPEDFATYYCQLLNSHPLTFGQGTRLEIK
Turning to B2, in test [2], the binding result is given as “binds”.

B3: COV2-2196 (human mAb) (antibody, V domains shown)
VH: QMQLVQSGPEVKKPGTSVKVSCKASGFTFMSSAVQWVRQARGQRLEWIGWIVIGSGNTNYAQKFQERVTITRDMSTSTAYMELSSLRSEDTAVYYCAAPYCSSISCNDGFDIWGQGTMVTVSS
VL: not shown
For the molecule B3, the binding result in test [1] and in test [3] was “binds” throughout.

B4: Fab COV2-2196 (Fab, V domains shown)
VH: QMQLVQSGPEVKKPGTSVKVSCKASGFTFMSSAVQWVRQARGQRLEWIGWIVIGSGNTNYAQKFQERVTITRDMSTSTAYMELSSLRSEDTAVYYCAAPYCSSISCNDGFDIWGQGTMVTVSS
VL: not shown
For the molecule B4, in test [2], the binding result was “binds”.
